Molecular target: T1, rat P2X4 receptor with a C-terminal hemagglutinin (HA) tag (rat, UniProt P51577 1-388)
T1 construct: P2X4 subunit, rat (Rattus norvegicus), GenBank U47031.1; UniProt P51577 is printed for the rat P2X4 subunit in the modelling methods; The subunit ran at 70 kDa on SDS-PAGE, which the authors put down to glycosylation; also called P2X4 subunit; source: tsA201 cells, transfected (pcDNA3.1, PEI); Triton X-100 solubilised MEMBRANE fraction; eluted from anti-HA agarose beads with HA peptide; not …
T1 sequence (looked up): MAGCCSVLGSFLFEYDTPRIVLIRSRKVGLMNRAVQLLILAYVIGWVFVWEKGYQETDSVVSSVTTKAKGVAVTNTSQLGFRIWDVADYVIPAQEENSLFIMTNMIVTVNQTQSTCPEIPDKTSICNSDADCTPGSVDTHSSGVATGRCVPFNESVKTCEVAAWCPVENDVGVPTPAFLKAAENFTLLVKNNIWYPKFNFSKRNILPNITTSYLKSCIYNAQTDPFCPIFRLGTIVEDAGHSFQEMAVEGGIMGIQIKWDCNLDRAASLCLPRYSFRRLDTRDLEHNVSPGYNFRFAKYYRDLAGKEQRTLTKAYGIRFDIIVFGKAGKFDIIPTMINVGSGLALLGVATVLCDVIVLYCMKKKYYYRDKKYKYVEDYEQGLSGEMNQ
Experiment: atomic force microscopy imaging; complexes co-purified by the HA tag from co-transfected tsA201 cells, adsorbed onto mica for 15 min, dried and imaged in intermittent contact mode; histograms of molecular volumes fitted by a double Gaussian; without ATP, or with 100 μM ATP for 30 min in solution before adsorption
Conditions: partners not purified

B1: human 5-HT3A receptor with a C-terminal MYC/His-6 epitope tag (receptor, UniProt P46098 24-478, looked up)
chain: RRSRNTTRPALLRLSDYLLTNYRKGVRPVRDWRKPTTVSIDVIVYAILNVDEKNQVLTTYIWYRQYWTDEFLQWNPEDFDNITKLSIPTDSIWVPDILINEFVDVGKSPNIPYVYIRHQGEVQNYKPLQVVTACSLDIYNFPFDVQNCSLTFTSWLHTIQDINISLWRLPEKVKSDRSVFMNQGEWELLGVLPYFREFSMESSNYYAEMKFYVVIRRRPLFYVVSLLLPSIFLMVMDIVGFYLPPNSGERVSFKITLLLGYSVFLIIVSDTLPATAIGTPLIGVYFVVCMALLVISLAETIFIVRLVHKQDLQQPVPAWLRHLVLERIAWLLCLREQSTSQRPPATSQATKTDDCSAMGNHCSHMGGPQDFEKSPRDRCSPPPPPREASLAVCGLLQELSSIRQFLEKRDEIREVARDWLRVGSVLDKLLFHIYLLAVLAYSITLVMLWSIWQYA
notes: 5-HT3A subunit, human (Homo sapiens), GenBank AK304630.1; UniProt P46098 is printed for the human 5-HT3A subunit in the modelling methods; The subunit ran at 55 kDa on SDS-PAGE; also called 5-HT3A subunit; 5-HT3A-MYC/His6; source: tsA201 cells, transfected (pcDNA3.1, PEI); Triton X-100 solubilised MEMBRANE fraction; eluted from HisPur Ni-NTA agarose beads with 200 mM imidazole; not shown: MYC, …
- stoichiometry N: 1
